One assay addresses HDAC1-flag (Homo sapiens (Human), UniProt Q13547 1-482). The assay can be described thus: cell-based or functional assay.
The target of assay [1] is T1, full length HDAC1 (yeast two-hybrid bait) (Homo sapiens (Human), UniProt Q13547 1-482).
T1 construct: also called histone deacetylase 1
The assay can be described thus: yeast two-hybrid screen.

The record followed here is patent publication US20110077210A1 (published 2011).

T1 sequence (Q13547 whole entry): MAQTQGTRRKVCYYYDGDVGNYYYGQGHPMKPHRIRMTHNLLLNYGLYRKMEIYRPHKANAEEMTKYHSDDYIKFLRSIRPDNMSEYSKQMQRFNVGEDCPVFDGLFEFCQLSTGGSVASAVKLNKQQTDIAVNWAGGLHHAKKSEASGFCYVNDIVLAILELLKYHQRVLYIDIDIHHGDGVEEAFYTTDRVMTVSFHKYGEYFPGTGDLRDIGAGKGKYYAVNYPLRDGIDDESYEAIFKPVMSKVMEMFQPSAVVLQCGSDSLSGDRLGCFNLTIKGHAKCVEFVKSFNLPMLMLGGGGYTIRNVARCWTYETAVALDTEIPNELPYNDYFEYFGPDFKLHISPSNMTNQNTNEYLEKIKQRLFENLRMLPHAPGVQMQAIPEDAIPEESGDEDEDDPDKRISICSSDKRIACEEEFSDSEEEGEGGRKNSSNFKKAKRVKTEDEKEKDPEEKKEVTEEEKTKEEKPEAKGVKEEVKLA
Sequence of HDAC1-flag (Q13547 whole entry): as above

B1: V5-APPL (full length APPL protein) (other, not shown: small tags and cut ends)
chain: MPGIDKLPIEETLEDSPQTRSLLGVFEEDATAISNYMNQLYQAMHRIYDAQNELSAATHLTSKLLKEYEKQRFPLGGDDEVMSSTLQQFSKVIDELSSCHAVLSTQLADAMMFPITQFKERDLKEILTLKEVFQIASNDHDAAINRYSRLSKKRENDKVKYEVTEDVYTSRKKQHQTMMHYFCALNTLQYKKKIALLEPLLGYMQAQISFFKMGSENLNEQLEEFLANIGTSVQNVRREMDSDIETMQQTIEDLEVASDPLYVPDPDPTKFPVNRNLTRKAGYLNARNKTGLVSSTWDRQFYFTQGGNLMSQARGDVAGGLAMDIDNCSVMAVDCEDRRYCFQITSFDGKKSSILQAESKKDHEEWICTINNISKQIYLSENPEETAARVNQSALEAVTPSPSFQQRHESLRPAAGQSRPPTARTSSSGSLGSESTNLAALSLDSLVAPDTPIQFDIISPVCEDQPGQAKAFGQGGRRTNPFGESGGSTKSETEDSILHQLFIVRFLGSMEVKSDDHPDVVYETMRQILAARAIHNIFRMTESHLLVTCDCLKLIDPQTQVTRLTFPLPCVVLYATHQENKRLFGFVLRTSSGRSESNLSSVCYIFESNNEGEKICDSVGLAKQIALHAELDRRASEKQKEIERVKEKQQKELNKQKQIEKDLEEQSRLIAASSRPNQASSEGQFVVLSSSQSEESDLGEGGKKRESEA
Take B1: the “HDAC1 activity: release of [3H]acetic acid from an [3H]acetyl-labeled histone H4 peptide by immunoprecipitated HDAC1” value in the assay with HDAC1-flag is around 4 fold.

B2: fragment of APPL (aa 489-639) identified in the yeast two-hybrid screen (other)
chain: TKSETEDSILHQLFIVRFLGSMEVKSDDHPDVVYETMRQILAARAIHNIFRMTESHLLVTCDCLKLIDPQTQVTRLTFPLPCVVLYATHQENKRLFGFVLRTSSGRSESNLSSVCYIFESNNEGEKICDSVGLAKQIALHAELDRRASEKQ
notes: Prey from a human brain cDNA library; The fragment fully overlaps the PTB domain (aa 500-634); also called APPL-PTB; fragment of DIP13alpha
As for B2, in assay [1], the binding result is on record as “binds”.
